The labels stand for the following.
B1: Glutathione S-transferase PHI 2 (natural protein)
chain: MAGIKVFGHPASIATRRVLIALHEKNLDFELVHVELKDGEHKKEPFLSRNPFGQVPAFEDGDLKLFESRAITQYIAHRYENQGTNLLQTDSKNISQYAIMAIGMQVEDHQFDPVASKLAFEQIFKSIYGLTTDEAVVAEEEAKLAKVLDVYEARLKEFKYLAGETFTLTDLHHIPAIQYLLGTPTKKLFTERPRVNEWVAEITKRPASEKVQ
B2: Putative 3-dehydroquinate synthase (natural protein)
chain: MAANTISLSNVAASKNLNSFQSRAFIAPPTIFFPVASAKSKPGELSLSSTTLSRSRVRAGASQLMNEPLNDQRSISSPTVVEVDLGDRSYPIYIGAGLLDHSELLQRHVHGKRVLVVTNDRVAPLYLDKTIDALTRGNPNVTVESVILPDGEKYKDMDTLMKVFDKAIESRLDRRCTFVALGGGVIGDMCGYAAASYLRGVNFIQIPTTVMAQVDSSVGGKTGINHRLGKNLIGAFYQPQCVLVDTDTLNTLPDREMASGLAEVIKYGLIRDAEFFEWQEKNIEALLARDPAALAFAIKRSCENKADVVSQDEKESGLRATLNLGHTFGHAIETGFGYGEWLHGEAVAAGTVMAVDMSYRLGWIDESIVKRVNKILVRAKLPTTPPESMTVSMFKSIMAVDKKVADGLLRLILLKGPLGNCVFTGDYDREALDATLRAFSKS
B3: Chloroplast chaperonin 10 (natural protein)
chain: MASTFVCSLPNPFFAFPVKATTPSTANHTLLGSRRGCLRIKAISTKWEPTKVVPQADRVLVRLEDLPIKSSGGVLLPKAAVKFERYLTGEIISVGSEVGQQVGPGKRVLFSDVSAYEVDLGTDARHCFCKESDLLALVE
B4: Fe superoxide dismutase 1 (natural protein)
chain: MAASSAVTANYVLKPPPFALDALEPHMSKQTLEFHWGKHHRAYVDNLKKQVLGTELEGKPLEHIIHSTYNNGDLLPAFNNAAQAWNHEFFWESMKPGGGGKPSGELLALLERDFTSYEKFYEEFNAAAATQFGAGWAWLAYSNEKLKVVKTPNAVNPLVLGSFPLLTIDVWEHAYYLDFQNRRPDYIKTFMTNLVSWEAVSARLEAAKAASA
B5: Lactoylglutathionelyase (natural protein)
chain: MASEARESPANNPGLSTNRDEATKGYIMQQTMFRIKDPKASLDFYSRVLGMSLLKRLDFSEMKFSLYFLGYEDTTTAPTDPTERTVWTFGQPATIELTHNWGTESDPEFKGYHNGNSEPRGFGHIGVTVDDVHKACERFEELGVEFAKKPNDGKMKNIAFIKDPDGYWIEIFDLKTIGTTTVNAA
B6: 5′-Adenylylsulfate reductase 2 (natural protein)
chain: MALAVTSSSTAISGSSFSRSGASSESKALQICSIRLSDRTHLSQRRYSMKPLNAESHSRSESWVTRASTLIAPEVEEKGGEVEDFEQLAKKLEDASPLEIMDKALERFGDQIAIAFSGAEDVALIEYARLTGKPFRVFSLDTGRLNPETYRLFDAVEKQYGIRIEYMFPDAVEVQALVRNKGLFSFYEDGHQECCRVRKVRPLRRALKGLKAWITGQRKDQSPGTRSEIPIVQVDPVFEGLDGGVGSLVKWNPLANVEGADVWNFLRTMDVPVNALHAQGYVSIGCEPCTRPVLPGQHEREGRWWWEDAKAKECGLHKGNIKEEDGAADSKPAAVQEIFESNNVVALSKGGVENLLKLENRKEAWLVVLYAPWCPFCQAMEASYIELAEKLAGKGVKVAKFRADGEQKEFAKQELQLGSFPTILLFPKRAPRAIKYPSEHRDVDSLMSFVNLLR
B7: Oxygen-evolving enhancer protein 3-2 (natural protein)
chain: MAQAVTSMAGLRGASQAVLEGSLQINGSNRLNISRVSVGSQRTGLVIRAQQNVSVPESSRRSVIGLVAAGLAGGSFVKAVFAEAIPIKVGGPPLPSGGLPGTDNSDQARDFSLALKDRFYIQPLSPTEAAARAKDSAKEIINVKSFIDKKAWPYVQNDLRLRASYLRYDLNTVISAKPKEEKQSLKDLTAKLFQTIDNLDYAARSKSSPDAEKYYSETVSSLNNVLAKLG
B8: CCR-like protein (natural protein)
chain: MQGALFIKPTILLPLPSSVSSPKLTFLLPHATKASRLSSLRSNNSSSSSSLTSDPNTVDYNSSILSVFPAEACEVISGYACSADIYPEVKLDTKPVSRPVASEPVDREYEEYNSPKTVFREEACDDLGGEFCEPDFQKDAN
B9: GLNB1-like protein (natural protein)
chain: MAASMTKPISITSLGFYSDRKNIAFSDCISICSGFRHSRPSCLDLVTKSPSNNSRVLPVVSAQISSDYIPDSKFYKVEAIVRPWRIQQVSSALLKIGIRGVTVSDVRGFGAQGGSTERHGGSEFSEDKFVAKVKMEIVVKKDQVESVINTIIEGARTGEIGDGKIFVLPVSDVIRVRTGERGEKAEKMTGDMLSPS
B10: Photosystem II subunit T (natural protein)
chain: MASMTMTATFFPAVAKVPSATGGRRLSVVRASTSDNTPSLEVKEQSSTTMRRDLMFTAAAAAVCSLAKVAMAEEEEPKRGTEAAKKKYAQVCVTMPTAKICRY
B11: Translationally controlled tumor protein (natural protein)
chain: MLVYQDLLTGDELLSDSFPYKEIENGILWEVEGKWVTVGAVDVNIGANPSAEEGGEDEGVDDSTQKVVDIVDTFRLQEQPTYDKKGFIAYIKKYIKLLTPKLSEEDQAVFKKGIEGATKFLLPRLSDFQFFVGEGMHDDSTLVFAYYKEGSTNPTFLYFAHGLKEVKC
B12: Sugar transporter EDR6-like 7 (natural protein)
chain: MSKASDAVREPLVDKNMAGSKPDQPWMVYLSTFVAVCGSFAFGSCAGYSSPAQAAIRNDLSLTIAEFSLFGSLLTFGAMIGAITSGPIADLVGRKGAMRVSSAFCVVGWLAIIFAKGVVALDLGRLATGYGMGAFSYVVPIFIAEIAPKTFRGALTTLNQILICTGVSVSFIIGTLVTWRVLALIGIIPCAASFLGLFFIPESPRWLAKVGRDTEFEAALRKLRGKKADISEEAAEIQDYIETLERLPKAKMLDLFQRRYIRSVLIAFGLMVFQQFGGINGICFYTSSIFEQAGFPTRLGMIIYAVLQVVITALNAPIVDRAGRKPLLLVSATGLVIGCLIAAVSFYLKVHDMAHEAVPVLAVVGIMVYIGSFSAGMGAMPWVVMSEIFPINIKGVAGGMATLVNWFGAWAVSYTFNFLMSWSSYGTFLIYAAINALAIVFVIAIVPETKGKTLEQIQAIVNP
B13: Protein LURP-one-related 15 Protein (natural protein)
chain: MEQPYVYAYPQGSGPSGAPTPQAGGVVVDPKYCAPYPIDMAIVRKMMSLTDGNFVITDVNGNLLFKVKEPVFGLHDKRVLLDGSGTPVVTLREKMVSMHDRWQVFRGGSTDQRDLLYTVKRSSMLQLKTKLDVFLGHNKDEKRCDFRVKGSWLERSCVVYAGESDAIVAQMHRKHTVQSVFLGKDNFSVTVYPNVDYAFIASLVVILDDVNREDRAA
B14: MPBQ/MSBQ methyl transferase (natural protein)
chain: MASLMLNGAITFPKGLGSPGSNLHARSIPRPTLLSVTRTSTPRLSVATRCSSSSVSSSRPSAQPRFIQHKKEAYWFYRFLSIVYDHVINPGHWTEDMRDDALEPADLSHPDMRVVDVGGGTGFTTLGIVKTVKAKNVTILDQSPHQLAKAKQKEPLKECKIVEGDAEDLPFPTDYADRYVSAGSIEYWPDPQRGIREAYRVLKIGGKACLIGPVYPTFWLSRFFSDVWMLFPKEEEYIEWFKNAGFKDVQLKRIGPKWYRGVRRHGLIMGCSVTGVKPASGDSPLQLGPKEEDVEKPVNNPFSFLGRFLLGTLAAAWFVLIPIYMWIKDQIVPKDQPI
B15: Geranylgeranyl reductase (natural protein)
chain: MLFSGSAIPLSSFCSLPEKPHTLPMKLSPAAIRSSSSSAPGSLNFDLRTYWTTLITEINQKLDEAIPVKHPAGIYEAMRYSVLAQGAKRAPPVMCVAACELFGGDRLAAFPTACALEMVHAASLIHDDLPCMDDDPVRRGKPSNHTVYGSGMAILAGDALFPLAFQHIVSHTPPDLVPRATILRLITEIARTVGSTGMAAGQYVDLEGGPFPLSFVQEKKFGAMGECSAVCGGLLGGATEDELQSLRRYGRAVGMLYQVVDDITEDKKKSYDGGAEKGMMEMAEELKEKAKKELQVFDNKYGGGDTLVPLYTFVDYAAHRHFLLPL
B16: Tryptophan synthase, beta subunit 1 (natural protein)
chain: MAASGTSATFRASVSSAPSSSSQLTHLKSPFKAVKYTPLPSSRSKSSSFSVSCTIAKDPPVLMAAGSDPALWQRPDSFGRFGKFGGKYVPETLMHALSELESAFYALATDDDFQRELAGILKDYVGRESPLYFAERLTEHYRRENGEGPLIYLKREDLNHTGAHKINNAVAQALLAKRLGKKRIIAETGAGQHGVATATVCARFGLECIIYMGAQDMERQALNVFRMRLLGAEVRGVHSGTATLKDATSEAIRDWVTNVETTHYILGSVAGPHPYPMMVRDFHAVIGKETRKQALEKWGGKPDVLVACVGGGSNAMGLFHEFVNDTEVRMIGVEAAGFGLDSGKHAATLTKGDVGVLHGAMSYLLQDDDGQIIEPHSISAGLDYPGVGPEHSFFKDMGRAEYYSITDEEALEAFKRVSRLEGIIPALETSHALAYLEKLCPTLSDGTRVVLNFSGRGDKDVQTVAKYLDV
B17: Small GTP-binding protein (natural protein)
chain: MAMASAMDLSSPPTFFLSGTSTSSPSLRRLSSISVSGFRRHSNRKLQILCQATAGTEPQSGLSVSGSKLAARSGQDRLLKVPISNIRNFSIIAHIDHGKSTLADKLLQVTGTVQNRDMKEQFLDNMDLERERGITIKLQAARMRYVYEDTPFCLNLIDTPGHVDFSYEVSRSLAACEGALLVVDASQGVEAQTLANVYLALENNLEIIPVLNKIDLPGAEPEKVLREIEEVIGLDCSKAIFCSAKEGIGITEILDAIVQRIPAPLDTAGKPLRALIFDSYYDPYRGVIVYFRVIDGKVKKGDRIFFMASGKDYFADEVGVLSPNQIQVDELYAGEVGYIAASVRSVADARVGDTITHYSRKAESSLPGYEEATPMVFCGLFPVDADQFPDLRDALEKLQLNDAALKFEPETSSAMGFGFRCGFLGLLHMEIVQERLEREYNLNLITTAPSVVYRVNSVNGDTTLCSNPSRLPDPGQRKSVEEPYVKIELLTPKDYIGALMELAQERRGEFKEMKYIAENRASILYELPLAEMVGDFFDQLKSRTKGYASMEYSVIGYRESDLIKLDILINAEMVEPLSTIVHRDKAYSVGRALTQKLKELIPRQMFKVPIQACIGSKVIASEALSAIRKDVLAKCYGGDISRKKKLLKKQAAGKKRMKAIGRVDVPQEAFMAVLKLEREVL

Chain of atToc132 G-domain bait (Arabidopsis thaliana) (Q9SLF3 456-794): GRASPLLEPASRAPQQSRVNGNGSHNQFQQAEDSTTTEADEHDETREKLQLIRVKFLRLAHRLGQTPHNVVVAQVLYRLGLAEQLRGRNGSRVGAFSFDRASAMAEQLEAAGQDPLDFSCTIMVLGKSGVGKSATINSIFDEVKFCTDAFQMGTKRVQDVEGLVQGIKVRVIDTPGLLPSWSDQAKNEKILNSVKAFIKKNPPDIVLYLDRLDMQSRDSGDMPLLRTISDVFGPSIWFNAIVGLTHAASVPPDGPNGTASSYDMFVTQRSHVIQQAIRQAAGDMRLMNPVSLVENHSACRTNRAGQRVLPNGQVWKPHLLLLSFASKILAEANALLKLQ

The experiment addresses atToc132 G-domain bait (Arabidopsis thaliana) (UniProt Q9SLF3). Description: two-hybrid; pairwise split-ubiquitin yeast two-hybrid of isolated NubG-preys with Toc159G, Toc132G or Toc132AG bait in NMY51; growth on SD-LWHA (3-AT) and quantitative β-Gal assay, activity relative to a reference bait set to 100%.
B1 had a % increase in strength of interaction (β-Gal) with 132G against 159G of 52%.

Regarding B2, the % increase in strength of interaction (β-Gal) with 132G against 159G was 27.8%. Under B3 stands 42.1%; under B4, 99.5%. B5 gave a % increase in strength of interaction (β-Gal) with 132G against 159G of 91.5%.

B6 showed a % increase in strength of interaction (β-Gal) with 132G against 159G of 44.7%.

The molecule B7 registered a % increase in strength of interaction (β-Gal) with 132G against 159G of 20%. B8 registered a % increase in strength of interaction (β-Gal) with 132G against 159G of 74.4%. Regarding B9, the % increase in strength of interaction (β-Gal) with 132G against 159G came out at 39.8%.

Turning to B10, the % increase in strength of interaction (β-Gal) with 132G against 159G was found to be 28.9%. Regarding B11, the % increase in strength of interaction (β-Gal) with 132G against 159G came to 41%. Take B12: the % increase in strength of interaction (β-Gal) with 132G against 159G came to 49.3%.

In the case of B13, the % increase in strength of interaction (β-Gal) with 132G against 159G stood at 29.9%.

On to B14, for which the % increase in strength of interaction (β-Gal) with 132G against 159G was 30.7%.

As to B15, the % increase in strength of interaction (β-Gal) with 132G against 159G amounted to 88%. Then B16, with 19.6%. Molecule B17 showed a % increase in strength of interaction (β-Gal) with 132G against 159G of 41.1%.

Values taken from publication PMC3988174.
